Blank lines part the entries; values can stand above or below the binder they belong to.
Experiments:
Assay in all cases: holdup assay
Design in all cases: key: below the threshold = too weak to quantify, mostly under pKd 3.1 to 4
[1] = molecular target: DLG4_1, P78352
[2] = molecular target: DLG4_2, P78352
[3] = molecular target: DLG4_3, P78352
[4] = molecular target: T1, FRMPD1, Q5SYB0
T1 sequence (Q5SYB0 52-145, limits assumed, looked up): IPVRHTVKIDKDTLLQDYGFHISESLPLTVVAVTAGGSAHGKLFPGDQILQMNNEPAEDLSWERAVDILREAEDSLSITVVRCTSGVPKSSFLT

[5] = molecular target: FRMPD2_1, Q68DX3
[6] = molecular target: GRASP, Q7Z6J2
[7] = molecular target: GRID2IP_1, A4D2P6
[8] = molecular target: T2, GRIP1_4, Q9Y3R0
T2 sequence (Q9Y3R0 467-571, limits assumed, looked up): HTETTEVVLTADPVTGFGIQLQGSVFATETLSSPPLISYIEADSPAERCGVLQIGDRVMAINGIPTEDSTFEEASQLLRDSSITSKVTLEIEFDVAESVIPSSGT

[9] = molecular target: T3, HTRA4, P83105
T3 sequence (P83105 378-476, limits assumed, looked up): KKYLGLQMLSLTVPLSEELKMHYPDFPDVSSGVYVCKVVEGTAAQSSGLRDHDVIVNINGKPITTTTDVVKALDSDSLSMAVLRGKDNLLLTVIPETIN

[10] = molecular target: LAP2, Q96RT1
[11] = molecular target: LNX1_3, Q8TBB1
[12] = molecular target: MAGI1_2, Q96QZ7
[13] = molecular target: MAGI2_2, Q86UL8
[14] = molecular target: MAGI2_4, Q86UL8
[15] = molecular target: T4, MPDZ_10, O75970
T4 sequence (O75970 1624-1722, limits assumed, looked up): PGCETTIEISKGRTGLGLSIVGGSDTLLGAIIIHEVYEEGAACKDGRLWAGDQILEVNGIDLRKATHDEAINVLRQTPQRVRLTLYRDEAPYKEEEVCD

[16] = molecular target: NHERF4_4, Q86UT5
[17] = molecular target: T5, PARD3B_1, Q8TEW8
T5 sequence (Q8TEW8 196-299, limits assumed, looked up): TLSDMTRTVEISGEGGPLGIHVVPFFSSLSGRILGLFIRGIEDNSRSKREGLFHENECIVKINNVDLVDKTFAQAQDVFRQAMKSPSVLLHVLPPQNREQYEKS

[18] = molecular target: T6, PDZD7_3, Q9H5P4
T6 sequence (Q9H5P4 857-944, limits assumed, looked up): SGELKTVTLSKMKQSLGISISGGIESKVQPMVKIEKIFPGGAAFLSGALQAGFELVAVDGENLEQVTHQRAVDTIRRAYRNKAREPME

[19] = molecular target: SCRIB_1, Q14160
[20] = molecular target: T7, SNTB1, Q13884
T7 sequence (Q13884 107-205, limits assumed, looked up): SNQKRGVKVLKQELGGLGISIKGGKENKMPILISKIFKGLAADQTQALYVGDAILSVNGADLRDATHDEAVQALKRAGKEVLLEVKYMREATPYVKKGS

[21] = molecular target: T8, SNTG1, Q9NSN8
T8 sequence (Q9NSN8 52-150, limits assumed, looked up): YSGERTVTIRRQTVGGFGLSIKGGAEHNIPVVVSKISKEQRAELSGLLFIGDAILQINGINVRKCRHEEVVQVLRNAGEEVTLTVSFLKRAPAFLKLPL

[22] = molecular target: T9, SNTG2, Q9NY99
T9 sequence (Q9NY99 68-166, limits assumed, looked up): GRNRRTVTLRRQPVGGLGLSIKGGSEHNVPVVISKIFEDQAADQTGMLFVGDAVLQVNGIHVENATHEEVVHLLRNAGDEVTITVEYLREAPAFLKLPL

[23] = molecular target: SNX27, Q96L92
[24] = molecular target: T10, SYNJ2BP, P57105
T10 sequence (P57105 8-110, limits assumed, looked up): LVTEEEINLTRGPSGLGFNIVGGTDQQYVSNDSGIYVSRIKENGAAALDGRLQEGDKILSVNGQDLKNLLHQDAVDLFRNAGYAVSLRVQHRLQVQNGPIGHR

[25] = molecular target: T11, TIAM2, Q8IVF5
T11 sequence (Q8IVF5 885-986, limits assumed, looked up): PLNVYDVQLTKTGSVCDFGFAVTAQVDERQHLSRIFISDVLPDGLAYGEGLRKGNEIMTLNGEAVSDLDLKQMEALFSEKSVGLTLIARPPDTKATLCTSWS

[26] = molecular target: T12, TJP3_3, O95049
T12 sequence (O95049 375-456, limits assumed, looked up): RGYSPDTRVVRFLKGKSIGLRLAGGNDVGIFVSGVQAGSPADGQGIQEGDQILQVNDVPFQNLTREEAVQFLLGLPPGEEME

[27] = plain residues with an end cap or a label only (N-terminal biotin on a linker: ahx)
[28] = plain residues with an end cap or a label only (N-terminal biotin on a linker: ttds)

Sequence of MAGI2_4, Q86UL8 (Q86UL8 772-865): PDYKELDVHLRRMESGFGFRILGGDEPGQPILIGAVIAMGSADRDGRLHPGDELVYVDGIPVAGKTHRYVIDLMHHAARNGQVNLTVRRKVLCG
Sequence of DLG4_1, P78352 (P78352 62-152): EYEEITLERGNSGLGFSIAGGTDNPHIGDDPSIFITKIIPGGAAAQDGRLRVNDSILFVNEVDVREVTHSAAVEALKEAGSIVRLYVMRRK
Sequence of SCRIB_1, Q14160 (Q14160 718-814): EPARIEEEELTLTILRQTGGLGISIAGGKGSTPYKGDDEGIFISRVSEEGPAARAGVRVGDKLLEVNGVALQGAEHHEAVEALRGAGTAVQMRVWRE
Sequence of GRASP, Q7Z6J2 (Q7Z6J2 96-193): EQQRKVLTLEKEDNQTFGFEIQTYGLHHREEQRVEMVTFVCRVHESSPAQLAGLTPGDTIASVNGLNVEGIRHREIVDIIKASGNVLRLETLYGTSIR
Sequence of NHERF4_4, Q86UT5 (Q86UT5 464-550): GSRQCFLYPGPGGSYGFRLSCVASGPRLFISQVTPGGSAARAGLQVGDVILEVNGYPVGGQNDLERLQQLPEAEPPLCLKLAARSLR
Sequence of GRID2IP_1, A4D2P6 (A4D2P6 1-87): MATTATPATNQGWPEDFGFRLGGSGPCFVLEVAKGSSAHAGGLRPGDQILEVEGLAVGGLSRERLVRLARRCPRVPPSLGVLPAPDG
Sequence of FRMPD2_1, Q68DX3 (Q68DX3 770-861): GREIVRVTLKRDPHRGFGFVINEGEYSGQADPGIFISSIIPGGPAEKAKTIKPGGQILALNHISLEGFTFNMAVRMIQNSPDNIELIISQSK
Sequence of MAGI2_2, Q86UL8 (Q86UL8 410-522): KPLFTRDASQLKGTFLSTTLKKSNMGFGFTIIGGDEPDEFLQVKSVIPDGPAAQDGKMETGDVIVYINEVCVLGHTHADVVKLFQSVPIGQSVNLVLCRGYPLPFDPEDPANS
Sequence of LNX1_3, Q8TBB1 (Q8TBB1 500-596): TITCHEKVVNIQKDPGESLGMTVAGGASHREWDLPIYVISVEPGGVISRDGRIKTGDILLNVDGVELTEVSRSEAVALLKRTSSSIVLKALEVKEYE
Sequence of DLG4_2, P78352 (P78352 155-259): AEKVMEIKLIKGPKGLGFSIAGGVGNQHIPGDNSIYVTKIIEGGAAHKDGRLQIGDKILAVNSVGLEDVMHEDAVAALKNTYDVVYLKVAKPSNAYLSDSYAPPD
Sequence of DLG4_3, P78352 (P78352 306-403): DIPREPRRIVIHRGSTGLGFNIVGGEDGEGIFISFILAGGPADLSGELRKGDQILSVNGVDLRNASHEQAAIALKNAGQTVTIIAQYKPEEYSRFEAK
Sequence of MAGI1_2, Q96QZ7 (Q96QZ7 456-580): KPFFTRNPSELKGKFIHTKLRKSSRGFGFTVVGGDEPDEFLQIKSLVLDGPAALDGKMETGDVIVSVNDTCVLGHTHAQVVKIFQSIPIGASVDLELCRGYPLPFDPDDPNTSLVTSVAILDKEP
Sequence of LAP2, Q96RT1 (Q96RT1 other isoform, or with tags, fused parts or gaps): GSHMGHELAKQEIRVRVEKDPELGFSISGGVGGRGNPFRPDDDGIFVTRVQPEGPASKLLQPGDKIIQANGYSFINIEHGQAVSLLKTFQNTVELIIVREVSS

pKd [1, 27]: below the threshold
pKd [2, 27]: below the threshold
pKd [3, 27]: below the threshold
pKd [4, 27]: below the threshold
pKd [5, 27]: below the threshold
pKd [6, 27]: below the threshold
pKd [7, 27]: below the threshold
pKd [8, 27]: below the threshold
pKd [9, 27]: below the threshold
pKd [10, 27]: below the threshold
pKd [11, 27]: below the threshold
pKd [12, 27]: below the threshold
pKd [13, 27]: below the threshold
pKd [14, 27]: below the threshold
pKd [15, 27]: below the threshold
pKd [16, 27]: below the threshold
pKd [17, 27]: below the threshold
pKd [18, 27]: below the threshold
pKd [19, 27]: below the threshold
pKd [20, 27]: below the threshold
pKd [21, 27]: below the threshold
pKd [22, 27]: below the threshold
pKd [23, 27]: below the threshold
pKd [24, 27]: below the threshold
pKd [25, 27]: below the threshold
pKd [26, 27]: below the threshold
Binder: TEAKLTETNA [MYO18A, Q92614]

pKd [1, 28]: below the threshold
pKd [2, 28]: below the threshold
pKd [3, 28]: below the threshold
pKd [4, 28]: below the threshold
pKd [5, 28]: below the threshold
pKd [6, 28]: 4.77
pKd [7, 28]: below the threshold
pKd [8, 28]: below the threshold
pKd [9, 28]: below the threshold
pKd [10, 28]: below the threshold
pKd [11, 28]: below the threshold
pKd [12, 28]: below the threshold
pKd [13, 28]: below the threshold
pKd [14, 28]: below the threshold
pKd [15, 28]: below the threshold
pKd [16, 28]: below the threshold
pKd [17, 28]: 3.93
pKd [18, 28]: 4.25
pKd [19, 28]: 4.91
pKd [20, 28]: 4.13
pKd [21, 28]: below the threshold
pKd [22, 28]: 3.8
pKd [23, 28]: 4.97
pKd [24, 28]: 4.01
pKd [25, 28]: below the threshold
pKd [26, 28]: below the threshold
Binder: IDNDTESTAL [ARHGAP17, Q68EM7]

pKd [1, 28]: 4.4
pKd [2, 28]: 4.71
pKd [3, 28]: 4.51
pKd [4, 28]: below the threshold
pKd [5, 28]: below the threshold
pKd [6, 28]: below the threshold
pKd [7, 28]: below the threshold
pKd [8, 28]: below the threshold
pKd [9, 28]: below the threshold
pKd [10, 28]: 4.07
pKd [11, 28]: below the threshold
pKd [12, 28]: 4.37
pKd [13, 28]: 4.47
pKd [14, 28]: 4.42
pKd [15, 28]: below the threshold
pKd [16, 28]: below the threshold
pKd [17, 28]: below the threshold
pKd [18, 28]: below the threshold
pKd [19, 28]: 5.53
pKd [20, 28]: 4.57
pKd [21, 28]: 4.67
pKd [22, 28]: 4.53
pKd [23, 28]: 5.7
pKd [24, 28]: 5.41
pKd [25, 28]: below the threshold
pKd [26, 28]: below the threshold
Binder: VLRLQSETSV [VANGL1, Q8TAA9]
